# What was measured:
# [1] = tested on: T1, VEGF-121 (Homo sapiens), P15692-9; assay: filter
# T1 sequence: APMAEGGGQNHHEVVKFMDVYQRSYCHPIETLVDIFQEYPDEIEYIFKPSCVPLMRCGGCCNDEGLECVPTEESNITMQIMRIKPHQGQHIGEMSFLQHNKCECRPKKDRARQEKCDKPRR
# [2] = biological target: PDGF-BB (platelet-derived growth factor BB) (Homo sapiens) (UniProt P01127); assay: filter
# [3] = all Z are BndU, rest DNA, SB18T, 37 C
# [4] = all P are NapdU, rest DNA, SB18T, 37 C
# PDGF-BB (platelet-derived growth factor BB) (Homo sapiens), sequence (P01127 82-190): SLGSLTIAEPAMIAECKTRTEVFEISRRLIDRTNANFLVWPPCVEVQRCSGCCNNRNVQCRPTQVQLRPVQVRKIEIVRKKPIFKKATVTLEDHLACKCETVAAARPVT
sequence,measurement,setting,value
CCCTCATCAGCCGTTCAAGTGCTTGTAGGATTTAAATGGAATTGGAGGA [4867-15_28],Kd,"[1]; P=Nap-dU, C3 spacer at 5",0.34 nM
CCGTTCAAGTGCTTGTAGGATTTAAATGG [4867-31_410],Kd,"[1]; as 4867-31_192, PS 3' of 2, 3' inverted dT",0.016 nM
CCGTTCAAGTGCTTGTAGGATTTAAATGG [4867-31_483],Kd,"[1]; as 4867-31_192, PS 24,25",0.032 nM
CCCTCCATCAGCCGTTCAATGCTTGTAGGATTTAAATGGAATTGGAGGA [4867-15_43],Kd,"[1]; P=Nap-dU, C3 spacer at 20",9.2 nM
CCGTTCAAGTGCTTGTAGGATTTAAATGG [4867-31_409],Kd,"[1]; as 4867-31_192, PS 3' of 1, 3' inverted dT",0.011 nM
CCGTTCAAGTGCTTGTAGGATTTAAATGG [4867-31_476],Kd,"[1]; as 4867-31_192, 2'-OMe 1, PS 26, printed 2.1-11",0.021 nM
CCCTCCATCAGCCGTTCAGTGCTTGTAGGATTTAAATGGAATTGGAGGA [4867-15_42],Kd,"[1]; P=Nap-dU, C3 spacer at 19",31 nM
CCGTTCAAGTGCTTGTACGATTTAAATGGA [4867-31_152],Kd,[1]; P=Nap-dU,0.32 nM
CCGTTCAAGTGCTTGTAGGATTTAAATGG [4867-31_482],Kd,"[1]; as 4867-31_192, PS 24,25,26",0.024 nM
CCGTTCAAGTGCTTGTAGGATTTAAATGG [4867-31_478],Kd,"[1]; as 4867-31_192, PS 25,26",0.019 nM
CCGTTCAAGTGCTTGTAGGATTTAAATGGCGACAGCATGTATGCACATCT [5169-4_93 (VEGF-6Heg-PDGF)],Kd,"[1]; P NapdU, superscript 1 2'-OMe, six Heg linkers",0.052 nM
CCGTTCAAGTGCTTGTAGGATTTAAATGG [4867-31_157],Kd,"[1]; NapdU at P, 2'-OMe 13",1.5 nM
CCGTTCAAGTGCTTGTAGGATTTAAATGG [4867-31_161],Kd,"[1]; 2'-OMe-NapU at 22, other P are NapdU, target taken as VEGF-121",0.064 nM
AGCCGTTCAAGTGCTTGTAGGATTTAAATGGA [4867-31_66],Kd,"[1]; P=Nap-dU, 2'-OMe G2",0.17 nM
CCCTCCATCAGCCGTTCAAGTGCTTTAGGATTTAAATGGAATTGGAGGA [4867-15-49],Kd,"[1]; C3 spacer at 26 as stated in text numbering is nearby G (single V in SEQ:614), all P are NapdU, C3 spacer at G26 tolerated",0.079 nM
CCGTTCAAGTGCTTGTAGGATTTAAATGG [4867-31_424],Kd,"[1]; as 4867-31_192, PS 3' of 21, 3' inverted dT",0.011 nM
CCGTTCAAGTGCTTCTAGGATTTAAATGGA [4867-31_149],Kd,[1]; P=Nap-dU,0.27 nM
CCGTTCAAGTGCTTGTAGGATTTAAATGG [4867-31_422],Kd,"[1]; as 4867-31_192, PS 3' of 19, 3' inverted dT",0.0095 nM
CGACAGCATGTATGCACATCT [5169-4_38],Kd,"[2]; NapdU at P, 2'-OMe 20",0.022 nM
CGACAGCATGTATGCACATCT [5169-4_48],Kd,"[2]; NapdU at P, 2'-OMe 18",0.014 nM
TTACGTTACACGCGTTTATAGCG [4149-8_244],Kd,"[2]; Bn-dU, Heg5, 2'-OMe A3, A9, A11, A21, G24",> 10 nM
CGACAGCATGTATGCACATCT [5169-4_114],Kd,"[2]; NapdU at P, 2'-OMe 7,17,21",0.038 nM
ACACGCGTTTATAGCGTCAACCCGAGTGAACA [4149-8_19],Kd,[2]; [3],74 nM
TTACACGCGTTTATAGCGTCAACCCGAGTGAACA [4149-8_18],Kd,[2]; [3],13 nM
CGACAGCATGTATGCACATCTAGAGGCTACCCAGTGAATGAGGA [5169-4_5],Kd,[2]; NapdU at P,0.031 nM
CGACAGCATGTATGCACATCT [5169-4_47],Kd,"[2]; NapdU at P, 2'-OMe 16",0.016 nM
CGACAGCATGTATGCACATCTAGAGGC [5169-4_20],Kd,[2]; NapdU at P,0.014 nM
CTCTTACGACTACGTTACACGCGTTTATAGCGTCAACCCGAGTGAACA [4149-8_11],Kd,[2]; [3],0.03 nM
CTTACGACTACGTTACACGCGTTTAT [4149-8_34],Kd,[2]; Bn-dU,> 10 nM
TTACGTTACACGCGTTTATAGCG [4149-8_364],Kd,"[2]; Bn-dU, dT8, Heg5, 2'-OMe A3, A11, A21, G24",> 10 nM
TTACGTTACCGCGTTTATAGCG [4149-8_436],Kd,"[2]; as 4149-8_379, BndU 2, PS 9,15,17",0.0077 nM
CTTACGACTACGTTACACGCGTTTATAGCGTCAACCCGA [4149-8_26],Kd,[2]; [3],0.08 nM
CGACAGCATGTATGCACATCT [5169-4_158],Kd,"[2]; as 5169-4_146, PS 13, 3' inverted dT",0.019 nM
CGACAGCATGTATGCACATCTAGAGGCT [5169-4_19],Kd,[2]; [4],0.012 nM
CGACAGCATGTATGCACATCT [5169-4_181],Kd,"[2]; as 5169-4_146, PS 18, 3' inverted dT",0.021 nM
TTACGTTACCGCGTTTATAGCG [4149-8_422],Kd,"[2]; as 4149-8_379, 2'-OMe 13,15",0.27 nM
TTACGTTACCGCGTTTATAGCG [4149-8_433],Kd,"[2]; as 4149-8_379, NapdU 16, PS 9,15",0.066 nM
TTACGTTACCGCGTTTATAGCG [4149-8_435],Kd,"[2]; as 4149-8_379, BndU 2, NapdU 16, PS 9,15,17",0.016 nM
CGACAGCATGTATGCACATCT [5169-4_132],Kd,"[2]; NapdU at P, 2'-OMe 1,2,3",0.42 nM
TTACGTTACACGCGTTTATAGCG [4149-8_179],Kd,"[2]; Bn-dU, Trp-dU16, Heg5, 2'-OMe A3, A11, A21, G24",> 10 nM
CACAGCATGTATGCACATCT [5169-4_60],Kd,"[2]; C3 spacer at 2, NapdU at 9,11,13,19,21, C3 spacer walk",27 nM
TTACGTTACACGCGTTTATAGCG [4149-8_350],Kd,"[2]; Bn-dU, Pe-dU17, 2'-F C10, Heg, 2'-OMe",> 10 nM
TTACGACTACGTTCACGCGTTTATAGCG [4149-8_77],Kd,"[2]; Bn-dU, C3 at 14",> 10 nM
TTACGTTACACGCGTTTATAGCG [4149-8_351],Kd,"[2]; Bn-dU, Pe-dU17, 2'-F C14, Heg, 2'-OMe",> 10 nM
CTGCCTCGACAGCATGTATGCACATCTAGAGGCTA [5169-4_11],Kd,[2]; NapdU at P,0.6 nM
CGACAGCATGTATGCACATCT [5169-4_37],Kd,"[2]; NapdU at P, 2'-OMe 17",0.041 nM
CGACAGCATGTATGCACATCT [5169-4_123],Kd,"[2]; NapdU at P, 2'-OMe 1,20,21",0.03 nM
TTACGTTACACGCGTTTATAGCG [4149-8_276],Kd,"[2]; Bn-dU, FBn-dU7, Ib-dU8, Pe-dU17, Th-dU18, Heg5, 2'-OMe A3, A11, A21, G24",> 10 nM
TTACGACTACGTTACACGCGTTTATAGCG [4149-8_108],Kd,"[2]; Bn-dU, 2'-OMe U21",> 10 nM
TACGTTACACGCGTTTATAGCGTCAACCCGAGTGAACA [4149-8_16],Kd,[2]; [3],22 nM
CGACAGCATGTATGCACATCT [5169-4_175],Kd,"[2]; as 5169-4_146, PS 15, 3' inverted dT",0.0069 nM
CGACAGATGTATGCACATCT [5169-4_65],Kd,"[2]; NapdU at P, C3 spacer at 7",0.074 nM
CGACAGCATGTATGCACATCT [5169-4_34],Kd,"[2]; NapdU at P, 2'-OMe 4",0.033 nM
CGACAGCATGTATGCACATCT [5169-4_42],Kd,"[2]; 2'-OMe G14, NapdU at 9,11,13,19,21, 2'-OMe substitution",0.0069 nM
CGACAGCATGTATGCACATCTAGAG [5169-4_22],Kd,[2]; NapdU at P,0.015 nM
CGACAGCTGTATGCACATCT [5169-4_66],Kd,"[2]; C3 spacer at 8, NapdU at 9,11,13,19,21, C3 spacer walk",8.5 nM
CGACAGCATGTATGCACATCT [5169-4_128],Kd,"[2]; NapdU at P, 2'-OMe 13,14,15",0.099 nM
TTACGTTACCGCGTTTATAGCG [4149-8_431],Kd,"[2]; as 4149-8_379, NapdU 16, PS 9,15,17",0.043 nM
CGAAGCATGTATGCACATCT [5169-4_62],Kd,"[2]; C3 spacer at 4, NapdU at 9,11,13,19,21, C3 spacer walk",42 nM
TTACGTTACACGCGTTTATAGCGNT [4149-8_341],Kd,"[2]; 4149-8_260 3'-3' dimer, 2 Heg, doubler",0.0272 nM
GACAGCATGTATGCACATCT [5169-4_30],Kd,[2]; [4],0.062 nM
CGACAGCATGTATGCACATCT [5169-4_107],Kd,"[2]; NapdU at P, 2'-OMe 1,6,18",0.013 nM
TTACGTTACACGCGTTTATAGCG [4149-8_178],Kd,"[2]; Bn-dU, Trp-dU8, Heg5, 2'-OMe A3, A11, A21, G24",> 10 nM
TTACGACTACGTTACACGCGTTTATAGCG [4149-8_104],Kd,"[2]; Bn-dU, 2'-OMe U2",> 10 nM
CGACAGCATGTATGCACATCT [5169-4_54],Kd,"[2]; NapdU at 11,13,19,21, dT at 9, dT substitution",44 nM
CGACAGCATGTATCACATCT [5169-4_72],Kd,"[2]; C3 spacer at 14, NapdU at 9,11,13,19,21, C3 spacer walk",230 nM
CGACAGCATGTATGCACATCTAGAGGCTA [5169-4_18],Kd,[2]; NapdU at P,0.026 nM
TTACGACTACGTTACACGCGTTTATAGCG [4149-8_111],Kd,"[2]; Bn-dU, Nap-dU1, 2'-OMe U25",> 10 nM
TTACGACTACGTTACACGCGTTATAGCG [4149-8_85],Kd,"[2]; Bn-dU, C3 at 22",> 10 nM
TTACGTTACACGCGTTTATAGCG [4149-8_348],Kd,"[2]; Bn-dU, Pe-dU17, 2'-F A9, Heg, 2'-OMe",> 10 nM
CGACAGCATGTATGCACATCT [5169-4_157],Kd,"[2]; as 5169-4_146, PS 12, 3' inverted dT",0.018 nM
TTACGTTACCGCGTTTATAGCG [4149-8_434],Kd,"[2]; as 4149-8_379, PS 9,15",0.032 nM
CGACAGCATGTATGCACATCT [5169-4_92],Kd,"[2]; NapdU at P, 2'-OMe 1,7,15,16,18,20,21",0.0052 nM
CGACAGCATGTATGACATCT [5169-4_73],Kd,"[2]; C3 spacer at 15, NapdU at 9,11,13,19,21, C3 spacer walk",0.015 nM

# Source: patent US20160177307
